From the nanobody polyreactivity screen of Harvey et al. (2022)

Experiment: yeast display, Sf9 membrane polyspecificity reagent, FACS + sequencing; frameworks hold sequencing errors
Procedure, shortened: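 A nanobody's polyreactivity label depends on the gate it was sorted from. Yeast display cells were stained with 10% biotinylated, detergent-solubilized Sf9 membrane reagent for 1 hour at 4 °C, enriched on streptavidin microbeads and sorted by FACS. The low and high (top ~1%) gates were set on anti-HA fluorescence for expression and streptavidin fluorescence for reagent binding.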

Row | Sequence | polyreactivity (PSR sort gate)
1 | QVHLVVSGGGLVQAGGSLRLSCAASGRTFIRYAMGWYRQAPWKESELVAAITQSGGRTYYADSVKGRFTISRDNAKNTVYLQMNSLIPEDTAVYYCAAIGRYAFYYPRDYWGQGTQVTVSS | high polyreactivity
2 | QVQLVDSGGGLVQAGGSLRLSCAASGNIFTSYARGWYRQAPGKERELVAAISSGGRTSYADSVKGRFTISRDNAMNTVFLQMNSLKPDYTAVYYCAAYYRRWPREYYYWGQGTQVSVSS | high polyreactivity
3 | QVQIVESGGGLVQAGGSLRLSCAASGRIFGPYAMVWYRQAPGKERELVAAIRASSSSTYYADSVKGRFTISRDNAKNTVYLQMNSLKPEDTAVYYCAADWYYGYAWKYGYWGQVTQVTVSS | low polyreactivity
4 | QVQLVESGRGLVQEGGSLRLSCAASGRNVVFYTMGWNRQEPVKERELVATISIRGSTYYADSVKGRFTISRDNAKNTVYLKMNSLKPEDTAVYYCAAVYYSYYSFSYNYWGQGTVVTVSS | low polyreactivity
5 | QVQLVESGGGLVQAGGSLRLSCAASGSIFTRYAMGWYRQAPGKERELVAAISTSGGSTYYADSVKGRFTISRDNAKNTVYLQMNSLKPEDTAVYYCAADDQRRSGYYSWGQGTQVTVSS | high polyreactivity
6 | QVQLVESGGGLVQAGGSLRLSCAASGFTFYYYAMGWYRQAPGKERELVAAITKNGGRTFYADSVKGRFTISRDNAKNTVYLQMNSLKPEDTAVYYCATVGNWPDYYYWGQGTQVTVSS | high polyreactivity
7 | QVQLVESGGGLVQAGGSLRLSCAASGSTFGGNAMGWYRQAPGKERELVAAISSGDSTTYADSVKGRFTISRDNAKNTVYLQMNSLKPEDTAVYYSNRSPKSGQVTYLYSVNAHYDYWGQGTQVTVSS | low polyreactivity
8 | QVQLVETPGGLVQAGGSLRLSCAASGRIFAYNAMGWYRQEPGNERELVAAIDSGGDTNYADSVKGRFTISRDNAKNTVYLKMNSLKPEVTAVYYCWSRAAPPGWFYGTNDNYWGQGTQVTVSS | low polyreactivity
9 | QVQLVESGGGLVQAGGSLRLSCGASGRIFWDNAMGWYRQAPGKERELVAAIDYRGGNTNYADSVKGRFTISRDNAKNTVYLQMNRLKTEDTAVYYCNAEWAVRYPGYDYWGQGTQVTVSS | low polyreactivity
10 | QVQLVESGGGLVQAGGSLRLSCAASGYTFSVNAMGWYRQAPGKESELVATITSSGGGTYYADSVKGRFTISRDNAKNTVYLQMNSLKPEDTAVYYCAADGYWYGDIYPSDYRWYDYWGQGTQVTVSS | low polyreactivity
11 | QVQLVESGGGLVQAGGSLRLSCAASGRIFYVNTMGWYRQAPGKERELVATISSAASTNYADSVKGRFTISRDNAKNTVYLQMNSLKPEDTAVYYCNAAFYKEYFYWGQGTQVTVSS | low polyreactivity
12 | QVQLVESGGGLVQAGGTLRVSCAASGSTFTTNAMGWSRQAPGTERELFATISGGGSTYYADSVQGRFTISRDNAKNTVYLQMNSLKPDDTAVYYCATDVQVPGIGRSVYAYEYLGQGTQVTVSS | low polyreactivity
13 | QVQLVESGGGLVQAGGSLRLSCAASGIIFDGNVMGWYRQAPGKEREFVASISISGGSTSYADSVKGRFTISRDNAKNTVYLQMNSLKPEDTAVYYCNTDVGYGRVWRWRYHGDYWGQGTQVTVSS | low polyreactivity
14 | QVQLVESGGGLVQAGGSLRLSCAASGFTFDGYAIGWYRQAPGKERDLVAAISGAGGSTYYADSVKGRFTISRDNAKNTVYFQMNSLKPEDTAFYYCAAEWIADLSSPVWYDYWGQGTQVTVSS | high polyreactivity
15 | QLQLVESGGGLVQAGGRLRLSCAASGGIFQTNAMGWYRQAPGKERELVAAISRSAGRTYYADSVKGRFTISRDNAKNTVYLQMTSLKPEDTAVYYCNALRGRFRFDYWGQGTQVTVSS | high polyreactivity
16 | QVQLVESGGGLVQAGGSLRLSCAASGSIITWNAMGWYRQAPGKERELVAAIDWDGGSTYYADSVKGRFTISRDNAKNTVYLQMNSLKPEDSAVYYCAATYGWYTGRYPSGHYYYWGQGTQVTVSS | low polyreactivity
17 | QVQLVESGGGLVQAGGSLRLSCAPSGFIFVKYVMGWYRQAPGKERELVATITGSTGGTYYADSVKGRFTISRDNAKNTVYLQMNSLKPEDTAVYYCNKDYYYNPGNVASGYDYWGQGTQVTVSS | low polyreactivity
18 | QVQLVESGGGLVQAGGSLRLSCAASGRTFASNAMGWYRQAPGKERELVAAISYSGGRTYYADSVKGRFTISRDNAKNTVYLQMNSLKPEDTAVYYCAKVGPVYKYDYWGLGTQVTVSS | high polyreactivity
19 | QVQLVESGGGLVQAGGSLRLSCAASGITFGNYAMGWYSQAPGKERELVASFSWNVGSTYYADSVKGRFTISRDNAKNTVYLQMNSLKPEDTAVYYCARGYDRPRVATFHRFDYWGQGTQVTVSS | low polyreactivity
20 | QVQLVESGGGLVQAGGSLRLSCAASGSIFRIYAMGWSRQAPGKERELVAAIDSSGGSTYYADSVKGRFTISRDNAKNTVYLQMNSLKPEDTAVYYCAADFGSKSTPYDYWGQGTQVTVSS | low polyreactivity
21 | QVQLVESGGGLVQAGGSLRLSCAASGRIFRRYALGWYRQAPGKERELGAAITRSGGSTYYADSVKGRFTISRDNAKNTVYLQMNSLNPEDTAVYYCYAPSSLGTDYDYWGQGTQVTVSS | high polyreactivity
22 | QVQLVESGGGLVQAGGSLRLSCAASGYTFDYYAMGRYRQAPGNERELVAAITNSGGSTYYADSVKGRFTISRDNAKKTVYLQMNSLKPEDPAVYYCAALYYVKPGQRYDYWGQGTQVTVSS | high polyreactivity

Row | Sequence | polyreactivity (PSR sort gate)
23 | QVQLVESGGGLVQAGGSLRLSCAASGITFVANAMGWYRQAPGKERELVAAITRGGSTNYADSVKGRFTISRDNAKNTVYLQMNSLKPEDTAVYYCAADYVTRIGRYDYWGQGSQVTVSS | low polyreactivity
24 | QVQLVESGGGLVQAGGSLRLSSAASAFIFSSYAMGWYRQAPWKERELVAAITRNGGSTYYADSVKGRFTISRDNAKNTVYLQMNSLKPEDTAVYYCAAQRWRGVGRFDYWGQGTQVTVSW | high polyreactivity
25 | QVQLVESGGGLVQAGGSLRLSCAASGSTIDYYAMGWYRQAPGKERELVAAISWSGGSTYYADSVKGRFTISRDNAKNTVYLQMYSLKTEDTAVYYCAAYSAFYTGSYNGWSDYDYWGQGTQVTVSS | low polyreactivity
26 | QVQLVESGGALVQAGGSLRLSCAASGSIFKKYAMGWYRPAPGKERELVAAITRGTYYADSVKGRFTISRVNAKNTVYLQMNSLKPEDTAVYYCNREYWGRGYYRVRGEYDYWGQGTQFTVSS | low polyreactivity
27 | QVQLVESGGGLVQAGGSLGLSWAASGSIIRYNALGWYRQAPGKERELVAAITKGAGSTYYADSEKGRFTISRDNAKNTVYLHMNSLKPEDTEVYYCNKARGSGHTYYSWGQGTQVTVSS | high polyreactivity
28 | QVQLVESGGGLVQAGGSLRLSCAASGRIFSYNAMGWYRQAPGKERELVARINWSSGRTYYADSVKGRFTISRDNAKNTVYLQMNSLKPEDTAVYYCNRVSRGPVGGYYWGQGTQVTVSS | high polyreactivity
29 | QVQLVESGGGLVQAGGSLRLSCAASGLTFRVNDMGWYRQAPGKERELVATISSGGSTYYADSVKGRFTISRDNAKNTVYLQMNSLKPEDTAVYYCATNSEGQESNSYYVWMGYWGQGTQVTVSS | low polyreactivity
30 | QVQLVESGGGLVQAGGSLRLSCAASGSTFEYNVMGWYRQAPGKERELVASITSDGNTNYSDSVKGRFTISRDNAKNTVYLQMNSLKPEDTAVYYCNFYTWHWTFGMDYWGQGTQVTVSS | low polyreactivity
31 | QVQLVESGGGLVQAGGSLRLSCAASGFIFRLYAMGWYRQAPGKERELVAAISTGGGRTYYADSVKGRFTFSGDNAKNTVYLQMNSLKPEDTADYDCNTLVEPHYDYWGQGTQVTVSS | high polyreactivity
32 | QVQLVESGGGLVQAGGSLRLSCAASGSIFDYNTMGWYRQAPGKERELVAAISSNGGSTYYADSVKGRFTISRDNAKNTVYLQMNSRNPEDTAVYYCAVSIYVYHLDLEYWGQGTQVTVSS | low polyreactivity
33 | QVQLVESGGGLVQAGGSLRLSCAASGLTFLPNAMGWYRQAPGKERELVAAITNGGGTNYADSVKGRFTISRDNAKNTVYLQMNSLKPEDTAVYYCNADSTYFGGHDYWGQGTQVTVSS | low polyreactivity
34 | QVQLVESGGGLVQAGGSLRLSCAASGSIFDVYAMGWYRQAPGKERELVAAITFDGGSTYYADSVKGRFTISRDNAKNTVYLQMNSLKPEDTAVYDCNAEFYFLWDWQSFDYWGQGTQVTVSS | high polyreactivity
35 | QVELVESGGGLVQAGGSLRLSCDASGITFRSYAMGWYRQAPGKERELVAAIRSGGSTSYADSVKGRFTISRDNAKNTVYLQMNSLKPEDTAVYFCAAGGYVPLTDITFWKFGYWGQGSQVTVSS | low polyreactivity
36 | QVQLVESGGGLVQAGGSLRLSCAASGIIFYGYAMGRYRQAPGKERELVAAITSSGRTYYADSVKGRFTISRDNAKNTVYLQMNSLKPEDTAVYFCNVLLQRVYGTAPSFDYWGQGTQVTVSS | high polyreactivity
37 | QVQLVESGGGLVQAGGSLRLTCAASGSIFEGNAMGWYRQAPGKESELVASISGDGSTNYADSVKGRFTISRDNAKNSVYLQMNSLKPEDTAVYYCNADTISEPGFHMDYWGQGNQVTVSS | low polyreactivity
38 | QVQLVESCGGLVQAGGSLRLSCAASGRTFRDNAMGWYRQAPGKERELVAAIDIDSSTYYADSVEGRFTISRDNAKNTVYLQMNSLKPEDTAVYYCAAESYHDGKGFPDYEYWGQGTQVTVSS | low polyreactivity
39 | QVQLVESGGGLVQAGGSLRLSCAASGITFYGYAMGWYRQEPGKERELVATISSGGGTNYADSVKGRFTISRDNAKNTVYLQMNSLKPEDTAVYYCATDLSTVDYNYWGQGTQVTVSS | low polyreactivity
40 | QVQLVESGGGLVQAGGSLRLSCAASGRIFGVYAMGWYRQAAWKERELVAAITRGASTYYADSVKGRFTISRDNAKNTVYLQMNSLKPEDPAVYYCAVSQYRGIYRKYDYWGQGTQVTVSS | high polyreactivity
41 | QVQLVESGGGLVQAGGSLRLSCAASGNTFVYNDMGWSRQAPGKERELVADIRYSGSTYYADSVMGRFTISRDNAKNTVYLQMNSLKPEDTAVYYCAKAYYVLSWMGYWGQGTPVTVSS | low polyreactivity
42 | QVQLVESGGGLVQAGGSLRLSCAASGSIFSYYDMGWYRQAPGKERELVADISSTGGSTYYADSVKGRFTISRDNAKNTVSIQMNSLKPEDTAVYYCAAEIGYWGQGTQVTVSS | high polyreactivity
43 | QVQLVETGGGLVQAGGSLRLSCAASGITFVYYAMGWYRQAPGKERELVPSISSADNTNYADSVKGRFTISRDNAKNTVYLQMNSLKPEDTAVYYCAADFCWHLRHDSTGGYWGQGTQVTVSS | low polyreactivity
